Measured values as given in IntAct's records for PubMed 28691929.

B1: E3 ubiquitin-protein ligase RFWD3 (Homo sapiens), Q6PCD5 (parent)
chain: MAHEAMEYDVQVQLNHAEQQPAPAGMASSQGGPALLQPVPADVVSSQGVPSILQPAPAEVISSQATPPLLQPAPQLSVDLTEVEVLGEDTVENINPRTSEQHRQGSDGNHTIPASSLHSMTNFISGLQRLHGMLEFLRPSSSNHSVGPMRTRRRVSASRRARAGGSQRTDSARLRAPLDAYFQVSRTQPDLPATTYDSETRNPVSEELQVSSSSDSDSDSSAEYGGVVDQAEESGAVILEEQLAGVSAEQEVTCIDGGKTLPKQPSPQKSEPLLPSASMDEEEGDTCTICLEQWTNAGDHRLSALRCGHLFGYRCISTWLKGQVRKCPQCNKKARHSDIVVLYARTLRALDTSEQERMKSSLLKEQMLRKQAELESAQCRLQLQVLTDKCTRLQRRVQDLQKLTSHQSQNLQQPRGSQAWVLSCSPSSQGQHKHKYHFQKTFTVSQAGNCRIMAYCDALSCLVISQPSPQASFLPGFGVKMLSTANMKSSQYIPMHGKQIRGLAFSSYLRGLLLSASLDNTIKLTSLETNTVVQTYNAGRPVWSCCWCLDEANYIYAGLANGSILVYDVRNTSSHVQELVAQKARCPLVSLSYMPRAASAAFPYGGVLAGTLEDASFWEQKMDFSHWPHVLPLEPGGCIDFQTENSSRHCLVTYRPDKNHTTIRSVLMEMSYRLDDTGNPICSCQPVHTFFGGPTCKLLTKNAIFQSPENDGNILVCTGDEAANSALLWDAASGSLLQDLQTDQPVLDICPFEVNRNSYLATLTEKMVHIYKWE

Variants of: B1
Settings: with rfa2_human RPA2, P15927
Chain of rfa2_human RPA2, P15927 (P15927 whole entry): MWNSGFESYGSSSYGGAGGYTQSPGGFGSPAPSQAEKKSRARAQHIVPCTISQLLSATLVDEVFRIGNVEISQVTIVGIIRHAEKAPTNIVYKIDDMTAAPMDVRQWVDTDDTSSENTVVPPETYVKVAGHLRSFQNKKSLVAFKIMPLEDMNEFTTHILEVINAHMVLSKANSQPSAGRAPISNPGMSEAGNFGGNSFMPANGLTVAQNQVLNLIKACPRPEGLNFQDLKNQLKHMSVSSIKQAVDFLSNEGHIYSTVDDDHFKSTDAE

Variant	effect of a mutation on the interaction
I639K	decreasing interaction strength

Variants of: B1
Settings: with rfa2_human RPA2, P15927
Remark: another data set of the same source

Variant	effect of a mutation on the interaction
I639K	disrupting interaction strength
